In PMC12861478, “Amino acid transporter CsBAT links GABA accumulation to flavonoid metabolism in Camellia sinensis” (Horticulture Research, 2025) one finds Km data, which are given here for one protein.

Holding throughout (assay): cells, lysate or membranes
Substrate in data set [1]: N[C@@H](CCC(=O)O)C(=O)O
The note with it: transport; nitrogen-starved cells in nitrogen-free YNB.

Substrate in data set [2]: NC(=O)CC[C@H](N)C(=O)O
The note with it: transport; nitrogen-starved cells in nitrogen-free YNB.

Substrate in data set [3]: CCNC(=O)CC[C@H](N)C(=O)O
To be noted: transport; nitrogen-starved cells in nitrogen-free YNB.

Substrate in data set [4]: NCCCC(=O)O
To be noted: transport; nitrogen-starved cells in nitrogen-free YNB; 0.09375–8 mM GABA; H+-dependent.

B1: CsBAT (Camellia sinensis) (protein)
chain: MGWHSHSHVQNGDSSLDTGHTRLHELGYKQELKRDLSVVSNFAFSFSIISVLTGITTLYNTGLNYGGPVVLVYGWLIAGVFTMIVGLSMAEICSSYPTSGGLYYWSAKLAGPSWAPFASWLTGWFNIVGQWAVTTSVDFSLAQLIQVIILLSTGGKNGGGYQASKYVVIGIHGGILLLHAIINSLPITWLSLFGQFAALWNLIGVFVLMILIPTVAKEKASAKFVFTFFNTDNGDGINSKVYIFVLGLLMSQYTLTGYDASAHMTEETKSADKNGPKGIISAIGISVIVGWGYLLGVTFAVTKIPNLLSENNDAGGYAIAEVFYLAFKNRYGNGIGGIICLGVVAVAIFFCGMSSITSNSRMAYAFSRDGAMPLSSVWHKVNKHEVPLNAVWLSAIIAFCMALTSLGSIVAFQAMVSIATIGLYIAYALPIFFRVTLARKSFTPGPFNLGRYGVLVGWIAVLWVATISVLFSLPVSYPITDQTLNYTPVAVGGLLILTVASWIFSARHWFKGPITNIDDVL
For B1, the Km amounted to 580 ± 50 µM in data set [1], 400 ± 40 µM in data set [2], 360 ± 30 µM in data set [3] and 290 ± 20 µM in data set [4].
